The target of one assay is GST-Rac1^QP (UniProt P63000). The assay can be described thus: pull-down.
The next assay deals with GST-Arf1 (Arf1^∆N17) (UniProt P84077). Description: pull-down.

Here are results for 2 substances from article PMC9750158.

By Kd is commonly meant the concentration at which binding is half-saturated. Read a high Kd as lower affinity.

GST-Arf1 (Arf1^∆N17), sequence (P84077 18-181): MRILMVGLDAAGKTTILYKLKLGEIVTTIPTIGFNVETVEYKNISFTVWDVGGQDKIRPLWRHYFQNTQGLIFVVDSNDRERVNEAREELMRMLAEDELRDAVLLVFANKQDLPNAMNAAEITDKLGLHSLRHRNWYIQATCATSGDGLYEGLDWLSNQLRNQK

Substance “WRC with Sra1^Y967A (D site disrupted) (from UniProt Q7L576;Q9Y2A7;Q92558;Q9NYB9;Q8WUW1) (complex)” had a Kd in the assay with GST-Rac1^QP of 2 µM. In the assay with GST-Arf1 (Arf1^∆N17), “∆WRC230^D-Rac1 (Rac1 tethered to the C terminus of Sra1) (from UniProt Q7L576;Q9Y2A7;Q92558;Q9NYB9;Q8WUW1) (complex)” had a dissociation constant (Kd) of 5.33 µM.
